From US20210269521A1 (L AND L BIOPHARMA, published 2021) come the findings set out here.

Assay [1] has as its target T1, human TIM-3 extracellular domain-human IgG1 Fc fusion protein (human, UniProt Q8TDQ0 22-199).
T1 construct: Made in house or bought (ACROBiosystems TM3-H5258); also called TIM-3-hFc; not shown: human IgG1 Fc
Description: ELISA.

Assay [2] concerns the target T2, human TIM-3 extracellular domain-his tag protein (human, UniProt Q8TDQ0 22-199).
T2 construct: Made in house or bought (ACROBiosystems TM3-H5229); also called TIM-3-his; Human Tim3-his; not shown: his tag
Nature of the assay: SPR Biacore, antibody captured on Protein A, TIM-3-his in flow. As to the method:
First, Protein A (Thermo Pierce, Cat #21181) was conjugated to the biosensing chip CMS (Cat. #BR-1005-30, GE), and the chip was activated with the newly prepared 50 mM NHS (N-hydroxysuccinimide) and 200 mM EDC [1-ethyl-3-(3-dimethylaminopropyl) carbodiimide hydrochloride], then 10 μg/ml Protein A prepared with 10 mM NaAC (pH 4.0) was injected. […] The flow rate was 30 μl/min, the binding time was 180 seconds and the dissociation time is 300 seconds. Subsequently, the chip was washed for 30s with 10 mM Glycine-HCl (pH 1.5) at 30 μl/min. The data were fitted with a 1:1 Langmuir model using the software of Biacore T200 evaluation version 3.0 (GE), and the affinity value KD was obtained.

Assay [3] has as its target T1, human TIM-3 extracellular domain-human …. Nature of the assay: ELISA. Here is the method: Goat-anti-hFc (Jackson, 109-005-008) was diluted to a concentration of 1 μg/ml with PBS buffer (pH 7.4) and added to a 96-well microplate (Corning, CLS3590-100EA) at a volume of 50 μl/well, then incubated in an incubator at 37° C. for 2 hours (Or the antigen TIM-3 was directly used to coat the microplate with a concentration of 0.5 μg/ml, and then the antibody to be tested was directly added). After discarding the liquid, a blocking solution of 5% skimmed milk (skimmed milk powder purchased from Bright) diluted with PBS was added at 200 μl per well, and the microplate was incubated for 2.5 hours at 37° C. or overnight (16-18 hours) at 4° C. for blocking. The blocking solution was discarded, and the microplate was washed 5 times with PBST buffer (PBS with pH 7.4 containing 0.05% tween-20), then 50 μl/well of 0.5 μg/ml TIM-3-hFc (Example 1) was added and incubated for 2 hours in a 37° C. incubator. After incubation, the microplate was washed 6 times with PB ST. 50 μl/well of supernatant (containing testing antibody) or different concentrations of the antibody to be tested was added, and the microplate was incubated at 37° C. for 2 hours and washed 5 times with PBST. 50 μl/well of 1:2500 diluted HRP-labeled secondary antibody (Jackson Immuno Research, 115-035-003) was added to the microplate, incubating at 37° C. for 1 hour. After washing the microplate 5 times with PBST, 50 μl/well TMB chromogenic substrate (KPL, 52-00-03) was added to the microplate, followed by incubating at room temperature for 10-15 min.
(§1) The above-mentioned TIM-3 and PD-1 bispecific antibodies of the present invention were optimized and designed using the methods of Example 2 and Example 5, and their affinity for TIM-3 and PD-1 were tested respectively.
The source holds these as a separate data set.

Assay [4] shares this target. Description: ELISA on human TIM-3, OD450 against Log[nM] of antibody.
Assay [5] concerns the target T2, human TIM-3 extracellular domain-his …. Description: ELISA, human TIM-3-his.
In assay [6] the target is T1, human TIM-3 extracellular domain-human …. Nature of the assay: ELISA. This is another data set of the same source.
The target in assay [7] is T3, human PD-1 extracellular domain protein expressed in Example 1 (tag not stated) (human, UniProt Q15116 25-170).
T3 construct: extracellular domain; also called PD-1 protein; not shown: human IgG1 Fc or his tag
Description: blocking ELISA, PD-1 coated, competitor biotin-labeled PD-L1.

For assay [8], the target named is T3, human PD-1 extracellular domain protein …. Description: ELISA, PD-1 coated. Here is the method: PD-1 expressed in Example 1 was diluted to a concentration of 1 μg/ml with PBS buffer, pH 7.4, and added to a 96-well microplate (Corning, CLS3590-100EA) at 50 μl per well, thereby incubating in an incubator at 37° C. for 2 hours. After discarding the liquid, a blocking solution of 5% skimmed milk (Shanghai Shenggong Biological Engineering Co., Ltd., A600669-0250) diluted with PBS was added at 200 μl per well, followed by incubating at 37° C. for 3 hours or 4° C. overnight (16-18 hours)) for blocking. Subsequently, the blocking solution was discarded, and the microplate was washed 5 times with PBST buffer (pH 7.4 PBS containing 0.05% tween-20). […] Subsequently, the microplate was washed 5 times with PBST, then 50 μl/well of 1:2500 diluted HRP-labeled secondary antibody (Jackson Immuno Research, 115-035-003) was added, thereby incubating at 37° C. for 1 hour. After washing the microplate 5 times with PBST, 50 μl/well TMB chromogenic substrate (KPL, 52-00-03) was added, then incubated at room temperature for 5-10 min. Finally, 50 μl/well of 1M H₂SO₄ was added to stop the reaction. […] Go microplate reader (ThermoFisher, 51119200) was used to read the absorption value at 450 nm and the EC50 based on the OD value was calculated.
as §1

For the next assay, the target named is T4, Marmoset TIM-3 (Marmoset, UniProt F7I881 21-290).
T4 sequence: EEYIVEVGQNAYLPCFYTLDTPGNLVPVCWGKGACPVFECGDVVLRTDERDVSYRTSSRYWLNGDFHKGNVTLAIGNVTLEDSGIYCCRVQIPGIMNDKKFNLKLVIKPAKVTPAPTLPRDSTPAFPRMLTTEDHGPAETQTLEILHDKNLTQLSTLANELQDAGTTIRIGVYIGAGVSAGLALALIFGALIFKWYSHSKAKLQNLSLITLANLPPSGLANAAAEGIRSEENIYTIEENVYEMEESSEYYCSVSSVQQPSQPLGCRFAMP
Description: ELISA.

Changes are numbered by the printed parent chain. In names and notes the source's numbering stands. Like-named read-outs stand apart in the source and are kept apart here.

B1: humanized anti-TIM-3 antibody ab32 (antibody, IgG4, V domains shown)
VH: EVQLVESGGGLVKPGGSLRLSCAASGFTFSDYYMTWVRQAPGKGLEWVSSINYDGRNTYYLDSLKSRFTISRDNAKNSLYLQMNSLRAEDTAVYYCARGYYYYGSSPNYFDYWGQGTLVTVSS
VL: DIQMTQSPSSLSASVGDRVTITCRASENIYSYLTWYQQKPGKAPKLLIYNAKTLAEGVPSRFSGSGSGTDFTLTISSLQPEDFATYYCQQHYGTPLTFGQGTKLEIK
notes: also called ab32 intact antibody
Turning to B1, the EC50 in assay [1] came to 0.09 nM. In assay [2], this molecule had a Kd of 1.18 nM, a koff of 0.000296 s⁻¹ and a kon of 251000 M⁻¹ s⁻¹. Further, the EC50 in assay [3] was 0.036 nM. The “EC50 (read off the curve)” value in assay [4] is roughly 0.2 nM.

B2: humanized anti-TIM-3 antibody ab6 (antibody, IgG4, V domains shown)
VH: EVQLVESGGGLVKPGGSLRLSCAASGFTFSDYYMAWVRQAPGKGLEWVANINYDGSNTYYLDSLKSRFTISRDNAKNSLYLQMNSLRAEDTAVYYCARGLYYYGGNYFAYWGQGTLVTVSS
VL: DIQMTQSPSSLSASVGDRVTITCHASQGISSNIGWLQQKPGKAFKGLIYQGSNLEDGVPSRFSGSGSGADYTLTISSLQPEDFATYYCVQFAQFPPTFGQGTKLEIK
notes: also called ab6 intact antibody
As for B2, the EC50 came to 0.11 nM in assay [5], 0.084 nM in assay [1], 0.087 nM in assay [3] and 0.095 nM in assay [6]. In [2], the Kd is 2.83 nM. The koff in assay [2] is 0.00235 s⁻¹. Also, in [2], the kon worked out at 834000 M⁻¹ s⁻¹.

B3: bispecific antibody LB135 (bispecific antibody, human IgG4 S228P, kappa)
light: EIVLTQSPATLSLSPGERATISCRASKGVSTSGYSYLHWYQQKPGQAPRLLIYLASYLESGVPARFSGSGSGTDFTLTISSLEPEDFATYYCQHSRELPLTFGTGTKVEIKRTVAAPSVFIFPPSDEQLKSGTASVVCLLNNFYPREAKVQWKVDNALQSGNSQESVTEQDSKDSTYSLSSTLTLSKADYEKHKVYACEVTHQGLSSPVTKSFNRGEC
heavy: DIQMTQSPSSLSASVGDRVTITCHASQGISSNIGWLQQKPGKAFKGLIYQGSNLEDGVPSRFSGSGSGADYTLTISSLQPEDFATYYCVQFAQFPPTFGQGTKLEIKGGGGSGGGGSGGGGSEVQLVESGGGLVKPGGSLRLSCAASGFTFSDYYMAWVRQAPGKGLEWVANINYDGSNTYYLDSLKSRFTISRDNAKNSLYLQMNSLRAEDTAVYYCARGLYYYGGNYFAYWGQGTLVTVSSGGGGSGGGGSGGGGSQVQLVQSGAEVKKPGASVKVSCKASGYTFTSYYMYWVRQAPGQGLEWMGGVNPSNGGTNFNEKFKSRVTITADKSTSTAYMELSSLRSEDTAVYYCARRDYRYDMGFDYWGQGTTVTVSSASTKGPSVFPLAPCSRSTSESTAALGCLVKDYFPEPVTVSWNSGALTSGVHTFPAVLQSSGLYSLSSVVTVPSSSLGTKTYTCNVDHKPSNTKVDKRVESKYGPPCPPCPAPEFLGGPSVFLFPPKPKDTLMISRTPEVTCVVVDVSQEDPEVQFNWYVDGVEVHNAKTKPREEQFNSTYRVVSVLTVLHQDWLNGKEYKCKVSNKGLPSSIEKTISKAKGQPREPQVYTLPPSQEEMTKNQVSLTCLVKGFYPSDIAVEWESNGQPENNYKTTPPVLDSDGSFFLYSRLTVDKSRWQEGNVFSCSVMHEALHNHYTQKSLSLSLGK
notes: ab6VL-(G4S)3-ab6VH-(G4S)3-Ba08VH-hIgG4 with Ba08VL-κ
Consider B3, for which the IC50 in [7] came to 1.49 nM. Further, the values for the EC50 in [3] and in [8] were 0.145 nM and 0.082 nM, respectively.

B4: bispecific antibody LB143 (bispecific antibody, human IgG4 S228P, kappa)
light: B3 light with I21L, T89V, E97D, T104G
heavy: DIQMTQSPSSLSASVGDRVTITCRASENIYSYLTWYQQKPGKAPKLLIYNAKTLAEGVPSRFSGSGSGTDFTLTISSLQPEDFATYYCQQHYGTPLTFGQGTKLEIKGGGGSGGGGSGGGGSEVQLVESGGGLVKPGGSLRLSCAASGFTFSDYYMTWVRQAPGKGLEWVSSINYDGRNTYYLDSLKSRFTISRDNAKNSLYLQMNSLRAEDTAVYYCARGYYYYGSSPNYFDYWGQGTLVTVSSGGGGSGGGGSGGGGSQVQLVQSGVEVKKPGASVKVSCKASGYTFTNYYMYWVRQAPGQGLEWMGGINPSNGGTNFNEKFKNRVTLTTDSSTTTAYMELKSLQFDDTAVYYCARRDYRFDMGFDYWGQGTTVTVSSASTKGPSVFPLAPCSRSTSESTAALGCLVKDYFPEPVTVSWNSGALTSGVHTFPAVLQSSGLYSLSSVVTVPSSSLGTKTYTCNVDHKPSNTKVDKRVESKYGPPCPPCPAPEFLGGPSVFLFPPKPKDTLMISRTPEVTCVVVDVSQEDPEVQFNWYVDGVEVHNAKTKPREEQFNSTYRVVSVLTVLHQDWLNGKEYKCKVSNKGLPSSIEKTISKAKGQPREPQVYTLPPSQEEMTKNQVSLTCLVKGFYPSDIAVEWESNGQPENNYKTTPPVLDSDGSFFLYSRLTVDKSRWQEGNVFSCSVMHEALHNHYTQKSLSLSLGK
notes: ab32VL-(G4S)3-ab32VH-(G4S)3-PemVH-hIgG4 with PemVL-κ
On to B4, for which the IC50 in assay [7] is 1.88 nM. The EC50 in assay [3] amounted to 0.14 nM; in assay [8], 0.064 nM.

B5: bispecific antibody LB136 (bispecific antibody, human IgG4 S228P, kappa)
light: B3 light
heavy: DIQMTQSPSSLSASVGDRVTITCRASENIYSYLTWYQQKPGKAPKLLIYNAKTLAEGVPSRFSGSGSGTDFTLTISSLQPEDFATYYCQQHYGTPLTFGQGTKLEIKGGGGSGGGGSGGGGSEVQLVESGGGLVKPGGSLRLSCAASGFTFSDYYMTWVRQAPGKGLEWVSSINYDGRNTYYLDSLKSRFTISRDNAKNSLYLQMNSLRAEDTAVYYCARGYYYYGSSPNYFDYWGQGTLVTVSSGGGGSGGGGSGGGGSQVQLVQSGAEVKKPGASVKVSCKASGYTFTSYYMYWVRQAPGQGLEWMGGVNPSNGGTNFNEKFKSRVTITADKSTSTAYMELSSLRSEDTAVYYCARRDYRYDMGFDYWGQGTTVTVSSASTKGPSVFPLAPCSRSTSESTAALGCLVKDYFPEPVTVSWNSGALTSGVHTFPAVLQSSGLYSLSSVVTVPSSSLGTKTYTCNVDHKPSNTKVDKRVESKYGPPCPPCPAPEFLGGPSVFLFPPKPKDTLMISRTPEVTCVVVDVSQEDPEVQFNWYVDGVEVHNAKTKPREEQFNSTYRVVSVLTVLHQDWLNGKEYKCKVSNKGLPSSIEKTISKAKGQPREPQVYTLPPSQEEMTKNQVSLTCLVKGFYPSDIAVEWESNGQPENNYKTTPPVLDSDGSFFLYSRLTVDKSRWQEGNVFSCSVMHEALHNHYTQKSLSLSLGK
notes: ab32VL-(G4S)3-ab32VH-(G4S)3-Ba08VH-hIgG4 with Ba08VL-κ
Regarding B5, in assay [7], the IC50 was 1 nM. Also, the EC50 came out at 0.178 nM in assay [3] and 0.065 nM in assay [8].

B6: Tim3-0028 (antibody of US20170114135A1) (antibody, V domains shown)
VH: EVQLQQSVAELVRPGASVKLSCTASGFNIKTTYMHWVKQRPEQGLEWIGRIDPADDNTKYAPKFQGKATITADTSSNTAYLQLSSLTSEDAAIYYCVRDFGYVAWFAYWGQGTLVTFSA
VL: NIVMTPTPKFLPVSSGDRVTMTCRASQSVDNYVAWYQQKPGQSPKLLIYYASNRYIGVPDRFTGSGSGTDFTFTISSVQVEDLAVYFCQQHYSSPYTFGSGTKLEIK
Molecule B6 had an EC50 with Marmoset TIM-3 of 36.2 nM.
